The values that follow are results of earlier work, collected in PMC3125604.

As usually defined, the Kd is the concentration at which binding is half-saturated.

The target in this data set is Prolactin receptor (site 2) (Homo sapiens) (UniProt P16471). Description: surface plasmon resonance. (In general: SPR reads the build-up and loss of mass on a sensor chip optically.)
Sequence of UniProt P16471 (P16471 25-234): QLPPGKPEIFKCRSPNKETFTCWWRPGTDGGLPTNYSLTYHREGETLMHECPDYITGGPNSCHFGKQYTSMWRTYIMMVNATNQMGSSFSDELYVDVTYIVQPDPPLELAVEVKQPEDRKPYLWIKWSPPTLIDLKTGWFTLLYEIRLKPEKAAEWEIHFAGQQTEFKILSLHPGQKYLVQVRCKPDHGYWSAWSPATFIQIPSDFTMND

As for Prolactin (hPRL) (from UniProt P01236), the Kd was 33 µM.
